{
  "source": "patent US20260184780A1",
  "about": "(MONASH UNIVERSITY, published 2026)",
  "key": {"[1]": {"molecular_target": "T1, hPAR4 (naked) peptide (human)", "T1 construct": "also called native PAR4 peptide; hPAR4 peptide", "T1 peptide": "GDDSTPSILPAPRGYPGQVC", "assay": "ELISA, purified mAb on hPAR4 peptide"}, "[2]": {"molecular_target": "T1, hPAR4 (naked) peptide", "assay": "SPR Biacore T200, mAb captured by anti-mouse Fc, hPAR4 peptide as analyte", "procedure": "A series S CM5 sensor chip was activated with standard EDC/NHS amine coupling chemistry using the manufacturers recommended protocol with Goat anti-mouse IgG Fc. Anti-hPAR4 mAbs were captured at 1-2 ug/ml for 2 minutes at 10 ul/minute on flow cell 2 (FC2) and flow cell 1 (FC1) was used as a reference channel. […] Blank injections of buffer alone were also performed. All injections were performed in duplicate and in a random order.\n(§1) The kinetics of the binding interaction between the mAbs and hPAR4 was measured using Surface Plasmon Resonance (SPR; Biacore) by two different methods: 1. Anti-mouse Fc mAb capture method and 2. Streptavidin (SA) chip to capture biotinylated peptide. The ka(on) rate and kd(off) rates and KD were measured and fitted to a Langmuir model using the Biacore evaluation software."}, "[3]": {"molecular_target": "T2, hPAR1 (Biotin) peptide (human, not fully specified; biotin on the C-terminal lysine (SKB))", "T2 construct": "also called PAR1 peptide; PAR1 screening peptide", "T2 peptide": "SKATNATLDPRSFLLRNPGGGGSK", "assay": "ELISA, hybridoma supernatant"}, "[4]": {"molecular_target": "T1, hPAR4 (naked) peptide", "assay": "ELISA, hybridoma supernatant"}, "[5]": {"molecular_target": "T3, hPAR3 (Biotin) peptide (human, biotin on the C-terminal lysine (SKB))", "T3 construct": "also called PAR3 peptide; PAR3 screening peptide", "T3 peptide": "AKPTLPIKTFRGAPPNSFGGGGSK", "assay": "ELISA, hybridoma supernatant"}, "[6]": {"molecular_target": "T4, human PAR4 on isolated human platelets (human, UniProt Q96RI0 18-385)", "T4 sequence": "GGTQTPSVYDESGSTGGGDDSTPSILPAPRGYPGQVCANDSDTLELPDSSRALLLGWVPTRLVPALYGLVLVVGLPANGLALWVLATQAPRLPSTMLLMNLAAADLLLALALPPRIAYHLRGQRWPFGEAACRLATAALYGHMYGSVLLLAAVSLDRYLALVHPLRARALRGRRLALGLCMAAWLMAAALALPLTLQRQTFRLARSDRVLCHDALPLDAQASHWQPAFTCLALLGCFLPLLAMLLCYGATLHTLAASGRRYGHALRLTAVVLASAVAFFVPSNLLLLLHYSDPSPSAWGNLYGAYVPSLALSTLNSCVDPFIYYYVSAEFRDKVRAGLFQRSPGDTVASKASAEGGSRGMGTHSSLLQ", "assay": "cell-based or functional assay"}, "[7]": {"molecular_target": "T4, human PAR4 on isolated human platelets", "assay": "flow cytometry on isolated human platelets"}, "[8]": {"molecular_target": "T2, hPAR1 (Biotin) peptide", "assay": "ELISA, hybridoma supernatant on immobilised peptide, binding as fold above control", "procedure": "(§2) Wells were then washed with an automated plate washer (300 μl 1×PBS, 3 times). […] Wells were washed as above. A set of substrate tablets (1×silver, 1×gold) into 20 ml of ddH₂O by shaking vigorously on the thermomixer for 6 mins at room temperature. 50 μl of substrate ([…]™ […] Tablets (Sigma-Aldrich, N2770-50SET)) was added into each well and incubated for 20-25 mins at room temperature. 50 μl of STOP solution (2M Sodium Hydroxide, Solid (NaOH) (Merck, Cas #1310-73-2)) was added into each well to stop the reaction. Absorbance was read at 405 nm immediately after adding STOP solution with the ELISA reader, using the ‘RdrOle4’ software.\n(§3) In order to determine the specificity of the anti-hPAR4 clones to PAR4, ELISA screening was performed as described above."}, "[9]": {"molecular_target": "T3, hPAR3 (Biotin) peptide", "assay": "ELISA, hybridoma supernatant on immobilised peptide, binding as fold above control", "procedure": "as §2, §3"}, "[10]": {"molecular_target": "T5, hPAR2 (Biotin) peptide (human, not fully specified; biotin on the C-terminal lysine (SKB))", "T5 construct": "also called PAR2 peptide; PAR2 screening peptide", "T5 peptide": "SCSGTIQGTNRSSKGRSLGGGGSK", "assay": "ELISA, hybridoma supernatant on immobilised peptide, binding as fold above control", "procedure": "as §2, §3"}, "[11]": {"molecular_target": "T6, hPAR4 (Biotin) peptide (human, biotin on the C-terminal lysine (SKB))", "T6 construct": "also called hPAR4-biotinylated peptide; biotin-coupled human PAR4 peptide", "T6 peptide": "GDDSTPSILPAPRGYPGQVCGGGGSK", "assay": "SPR Biacore T200, biotin peptide on SA chip, whole mAb as analyte", "procedure": "as §1"}, "[12]": {"molecular_target": "T7, hPAR4 1-9 peptide (human)", "T7 construct": "Range counted on the hPAR4 immunising peptide; also called peptide 1-9", "T7 peptide": "GDDSTPSIL", "assay": "ELISA, peptide coated on the plate, purified mAb, background subtracted", "procedure": "(§4) Briefly the peptides were coated onto a Nunc maxisorp ELISA plate at 10 ug/ml overnight in coating buffer (0.1 M sodium carbonate pH8.0). Purified mAbs diluted in PBS were used in place of supernatant."}, "[13]": {"molecular_target": "T8, hPAR4 11-20 peptide (human)", "T8 construct": "Range counted on the hPAR4 immunising peptide; the C-terminal cysteine was removed, so nine residues are given; also called peptide 11-20", "T8 peptide": "APRGYPGQV", "assay": "ELISA, peptide coated on the plate, purified mAb, background subtracted", "procedure": "as §4"}, "[14]": {"molecular_target": "T9, hPAR4 8-15 peptide (human)", "T9 construct": "Range counted on the hPAR4 immunising peptide; also called peptide 8-15; core peptide", "T9 peptide": "ILPAPRGY", "assay": "ELISA, peptide coated on the plate, purified mAb, background subtracted", "procedure": "as §4"}, "[15]": {"molecular_target": "T6, hPAR4 (Biotin) peptide", "assay": "SPR Bio-Rad ProteOn XPR36, biotin peptide captured, purified mAb as analyte"}, "[16]": {"molecular_target": "T2, hPAR1 (Biotin) peptide", "assay": "ELISA, biotinylated peptide on streptavidin plate, absorbance 405 nm", "procedure": "(§5) Biotinylated peptides (hPAR1-4) were diluted in Wash buffer and allowed to bind to the blocked Streptavidin coated wells at 10 ug/ml (100 ul per well) for 1 hour at room temperature with gentle mixing. Wells were washed 3 times as above and purified anti-hPAR4 mAbs prepared at 10 ug/ml in Wash buffer were allowed to bind (100 ul/well) for 1 hour at room temperature with gentle mixing. The plate was washed 3 times as above and anti-mouse Fc conjugated to Alkaline phosphatase (AP) at 0.3 ug/ml (100 ul) was added to the wells for 1 hour as above. Wells were washed 3 times as above and developed with Alkaline Phosphatase substrate as described for the screening supernatant ELISA.\n(§6) To further characterise the purified anti-hPAR4 mAb's the specificity of the mAbs to hPAR1, hPAR2, hPAR3 and hPAR4 biotinylated peptides was performed."}, "[17]": {"molecular_target": "T3, hPAR3 (Biotin) peptide", "assay": "ELISA, biotinylated peptide on streptavidin plate, absorbance 405 nm", "procedure": "as §5, §6"}, "[18]": {"molecular_target": "T5, hPAR2 (Biotin) peptide", "assay": "ELISA, biotinylated peptide on streptavidin plate, absorbance 405 nm", "procedure": "as §5, §6"}, "[19]": {"molecular_target": "T4, human PAR4 on isolated human platelets", "assay": "cell-based or functional assay", "remark": "listed apart in the source"}, "[20]": {"molecular_target": "T1, hPAR4 (naked) peptide", "assay": "ELISA, purified mAb on hPAR4 peptide coated wells, anti-mouse Fc-AP, absorbance 405 nm", "procedure": "The experiment was completed with purified mAbs diluted in PBS instead of hybridoma supernatants.\nThe reactivity of seven purified anti-hPAR4 mAbs was analysed by ELISA (see Table 4)."}},
  "data": [
    {"binder": "5A.RC3.F10b.H4b (antibody, IgG2a, V domains shown, also called MoB5ARC3; MoB5A-RC3.F10b.H4b) VH: QVQLVESGGGVVQPGRSLRLSCAASGFTLSNYGMHWVRQAPGKGLEWVSVIWYDGSNKHYADSVKGRFTISRDNSKNTLYLQMNSLRAEDTAVYYCARESIVEVLPPFDYWGQGTLVTVSS VL: KIVLTQSPGTLSLSPGERVTLSCRASQRVRNNYLAWFQQKPGQAPRLFIYGASSRATGIPDRFSGSGSGTDFIFTISRLEPEDFAVYYCQQYGNSYTFGQGTKLEIK", "values": [
      {"measurement": "ELISA Pos:Neg ratio", "setting": "[1]", "value": 13.9, "unit": "ratio"},
      {"measurement": "Kd", "setting": "[2]", "value": 14.8, "unit": "nM"},
      {"measurement": "koff", "setting": "[2]", "value": 0.00487, "unit": "s⁻¹"},
      {"measurement": "kon", "setting": "[2]", "value": 330000, "unit": "M⁻¹ s⁻¹"},
      {"measurement": "binding to PAR1 ratio", "setting": "[3]", "value": 1, "unit": "ratio"},
      {"measurement": "binding to PAR4 ratio", "setting": "[4]", "value": 15.2, "unit": "ratio"},
      {"measurement": "binding to PAR3 ratio", "setting": "[5]", "value": 1.1, "unit": "ratio"},
      {"measurement": "IC50 (ug/ml) for inhibition of platelet aggregation, 0.1 U/ml thrombin", "setting": "[6]", "value": 1.6, "unit": "µg/mL"},
      {"measurement": "GMFI at 10 ug/ml over isotype control", "setting": "[7]", "value": 39},
      {"measurement": "binding result", "setting": "[8]", "value": "no binding"},
      {"measurement": "binding result", "setting": "[9]", "value": "no binding"},
      {"measurement": "binding result", "setting": "[10]", "value": "no binding"},
      {"measurement": "Kd", "setting": "[11]", "value": 0.32, "unit": "nM"},
      {"measurement": "koff", "setting": "[11]", "value": 0.000417, "unit": "s⁻¹"},
      {"measurement": "kon", "setting": "[11]", "value": "1.32e+06", "unit": "M⁻¹ s⁻¹"},
      {"measurement": "binding result", "setting": "[12]", "value": "no binding"},
      {"measurement": "binding result", "setting": "[13]", "value": "no binding"},
      {"measurement": "binding result", "setting": "[14]", "value": "binds"},
      {"measurement": "Kd", "setting": "[15]", "value": "~0.4", "unit": "nM"}
    ]},
    {"binder": "5F.RF3.A7b.C9 (antibody, IgG2b, V domains shown, also called MoB5F-RF3.A7b.C9; MoB5F F3) VH: QVQLVQSGAEVKKPGASVKVSCKTSAYTFTNYGISWVRQAPGQGLEWMGWISPYNGNTNYAQKLQGRVTMTTDTSTRTAYMELRSLRSDDTAVYYCAREYNRSSRGRYYYYGMDVWGQGTTVTVSS VL: EIVLTQSPGTLSLSPGERATLSCRASQSVSSNYLAWYQKKPGQAPRLLISGASSRATGIPDRFSGSGSGTDFTLTISRLEPEDFAVYYCQQYGSSPWTFGQGTKVEIK", "values": [
      {"measurement": "GMFI at 10 ug/ml over isotype control", "setting": "[7]", "value": 53},
      {"measurement": "binding result", "setting": "[16]", "value": "no binding (tested: 10 ug/ml)"},
      {"measurement": "binding result", "setting": "[17]", "value": "no binding (tested: 10 ug/ml)"},
      {"measurement": "binding result", "setting": "[18]", "value": "no binding (tested: 10 ug/ml)"},
      {"measurement": "binding result", "setting": "[12]", "value": "no binding"},
      {"measurement": "platelet aggregation, % of control", "setting": "[19]", "value": "< 50 % of control"},
      {"measurement": "EC50 (read off the curve)", "setting": "[20]", "value": "~0.1", "unit": "µg/mL"}
    ]}
  ]
}
